From the NTF2 design screens of Basanta et al. (2020) come the findings set out here.

The nature of this series: protease stability score; higher = more stable; yeast display proteolysis, trypsin and chymotrypsin.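 Note: log10 excess protease needed over predicted unfolded state with 0 meaning unfolded.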

“DDEDQRDQVRRLSKQMQTGDPNKVRQLLDPNAEVHIGDTTVHGREEVMRSQDKLRKRIDHFEMQDMKVDGESVVAHAVFRVDGKDITLEVRARYTNGRVKKMSFNPEAITRIRS” displayed a protease stability score of 0.127. The figure for “DDEDRKKADEMLKALKHGDPDRVRELMDPNAKAVYGDKRIRGRDDFVEDMFRKQREIKIDMKIEEFRVNGNHAVFTVDVIEDKDGRPKRFKARVVITLHNGKIIDIKVEEEH” is 1.25. “DDEDVNRHAESISRALERGDEERLLELLDENVTVEYGDKRVHGREEIERFLREFHRHADHIKVDRVKARGNKVRIRAVNDYDGRKVDYVFHFQFENGRVRKVKIEEK” gave a protease stability score of 1.29.

The sequence “DDEDWHRLAERLFTALRTGDWKELLKMMDPNVNINIGDQTYHGRKDLKNWAQHMREEVDHVEIKSIRIQGNKIVLDITYVTNGQRQNVIFVFSIHNGKVKHVHAKTK” came in with a protease stability score of 1.14. “DDEEADKIVEELVKAMEHNDEKHFMELVDPNAKVRYGDTEYHGEDQIQTMFREIVEQADTVQVRSYRVENGEARVEANFRVNGRNAIVTMSATFHNGRVQSLRLHARDEEDRNKLDN” yielded a protease stability score of 0.999. “DDEEAKRVAEEVIKAMQKGDEEHFDRLVDPDVRLNVGDKVLHGRRDLRRWVKEVADKADHVQVDDVKVNNGTAKIRFRIDINGQTEEVIMHIHVTNGEVKSMRVQRT” returned a protease stability score of 1.43.

Consider “DDEEALKVIHHFIEVMMSGDEETARRLADKNVEAHYGDRTYHGSEEAVRALIEWARSVDNMRIDSVTQEGNEVKVHVVAHFDGRRVEVDIVIEAHNGKINFVTINPDDIRRMKQ”, for which the protease stability score came out at 0.831.

Regarding “DDEEARDIIRLMRHGNFDNIVKQMDPNVTLRYGNNTFHGRERAKHAAQRLKTHIDHVHLKDYKVHGDKIVIDMVYNVNGKHYEVRVVMHIHNGRIQKVQWDFRDDRDETDAEKRLS”, the protease stability score came out at 1.28. With “DDEEARHRLSRISKMLEENDPQRFSNQADEDVRVDIGDKEIHGKEEVARQLTEWRKQVDHVRVTSVEVQGDHASVQFRADVNGRHRVLTLYMKWTNGRVKEMHIKEG”, the protease stability score is 0.857. Under “DDEEDHRVARLASTALQTGDPNQFKNLVDEDVKADVGDKTYHGHEQVMEMFKKFVDQVDHIKVKRVEVDGETARVDAEADINGRTKKIVLDVQAHNGHIKRVQMETS” stands 0.39; under “DDEEDKTLNQKAREALTDNDPDQMMNLFDKDANVDVGEKRVHGREQLRRYMQDLHRMVDHVQVDSVKVDGEKLEFKVTLQYNGRRLKVVFRINYHDGRAKNMHIEFTDEKTLKQFEK”, 0.882; under “DDEEHRRILERFVRAFQTGDEDDLRNLADPNAKAQVGDKQVHGMDKFATHIRELVDRIDHIDVKSLTASGNTLHARIKFRVNGHDVTVVMRIQVHNGKLKRIEIDPEVVRQIEG”, 1.22. Under “DDEEHVEEMMRRQQNNYKHGDFEELARQFDPNATVNVGDKTYHGREQIRDWYRKRKEDVDSMDLQVQHFSVDNGRIRIQATERQHFNGQDDSTHFQAEARKHGDKAKLKHFRQQ” stands -0.052; under “DDEEIKRLVKKAAHAFVDNDPDQFIRLLRDDVRARYGDKEVRGKESIKKQLQHWIHRIDHVEVKSFRAHGNSAEAHIVAIINGRTFDVHMDITFDNGRAHTVVFDVRSEEEFKEAMT”, 1.49; under “DDEEKHKLADEVLHILRTGDHDSMARLADENAKAEIGDSRFHGRDHIRKLVKEFRDTADHIRVIDYRVKGDKIVLRMEFVFNGKTSEVNVVMRFHNGRIKDIEVDPTQVRQMEK”, 1.03. In turn, “DDEEKKELADEIAQVIRTGDPKRMVEMVDENATAQVGDQKVHGRENIDKMMQNIRRTADHIRIEHVQVHGEEIRIKAKFHINGHTTTWVFSAEVHNGRIQRASLDRR” returned a protease stability score of 1. Under “DDEELKRQAEEFLKNVKTGNHQELVKQMDPNVKVDVGDKRLQGRETAAHWFVKLVEQVDDFHVQTFDVHGETLEMHFVMEINGHRLQMVLRAEVHNGHIQEMSIDYRDPDRLRKVLS” stands 0.392; under “DDEELQELVKVIQDNDKDRWRENIDKDARVRYGDKQWEGRNEVDKLMRELLEKADHIQFNSIHVQGNSIVVDVNINVNGKELDVIIEMEVRDGRIKHVKFQWRNEELHRIMDEILS”, 0.879; under “DDEEMTQLLRRILKALEKNDEDLYNQNFDEDVKINVGDKRYNGREDASKLMKTWNKQIDHFQVNDYTVSGEQLEMNITFQVDGRNVSFNVTATAKNGRVKEQTFDPSAMRKARS”, -0.077. The figure for “DDEENKKINEQLKTGDPQTFVDQADENARFRIGDKDFQGREDAKKIADLRKNRVDHIRYREVHFEGDKFVLDAVATFNGRRIKFVVHVTFHNGRLKYYRIKVTNEEVRRQLDELNS” is 0.8; for “DDEEQKERAEEIIKAIQTGDPQQFNRQADPNVEVKIGDTNVHGRENAARNIAERVQRADHIQVETMDVDGNNVVIDMVIQHNGRTKRFIVTLHFQNGRVKKMSIEDS” it is 0.459; for “DDEEQRKLAKEFIDLLRTGDEEHIAHQADKDVTFQIGDKRYTGQEELLKYMKHLVDRVDHIEVEEVDVRGNKVNVTVVVRYNGKRVTLNFDLEFSNGRLIHMSVDPDQQRQLDG” it is 1.18. The figure for “DDEERAEQFFRDIVEAIRTNDEERLRHLFDENAHAQVGDKTLHGREQIVKEIVSMAQSADHVSFQLRDLSVDGETITFYFKVQYTRNGRQTSKDVIIVARQSGDKLSVKTEVDS” is 1.4; for “DDEERAHEIFKKYQHVLKSNDEDKDRELMDPNARLHIGDKQYHGREQVTKYWHEVLTHADHLEANLKDFRVKGESINIVYTFRQNEDGRDSQVIIEMVMKRQGDHYTVTDNTQK” it is -0.044. The sequence “DDEERHKDAQKAMHLYQRGNPDEMDRLMDPNVKVRVGDETYHGREQANRAFKKIRDRVDHINVKSVSVHGNRINIVAEVNINGRNDILRVIIDYHNGRARRVIITHK” had a protease stability score of 0.204. Take “DDEERRKLADDLIKILQTGSSNDVRKLVDPNAKAHYGEKDFHGERELAKFMKEIADNVDHIEIETMEVHGDRVKIVMVIVHNGKQRRFVMVLVVHNGRIKKASQTSQ”: the protease stability score worked out at 1.46. The figure for “DDEESEKFAEDAMRILQTGDEEKFVRQADPNARVVYGEKTVHGREEAKKEVKTFRDRVDKIDVHHVEVTNGKAFLDATFRFDGRDRHYVVEIVRHNGRIKQMVMKKK” is -0.166; for “DDEETAKRHQREWQKNLEFNDEKSIQELVDPNARWQIGDKEVHGREEWARQLRRLREDVDHVQIHVKHVEVSNGQYNLNILIKYNINGETHKIRLVYVAQKNNGRVLVRSVEHK” it is 0.655; for “DDEFLKKVVEVIRHGDEERLVRNFDENARMRIGDKVFHGREEIKKALHRIREHADHIDVESVDQQGDTLDADVFIEVNGKNWVFKLKVTVHNGRIKEVSWHVRDEDADNIMKEIMS” it is 1.8. “DDEHANSMADQLQKAFETGDEDQIRRLMDKDVSINYGDKRIKGSRELAHWVATLRRQVDSIEYKSIHVKGDKVDIDVVVNVNGRNARFTLVARFSNGKFKELRVDPENMKRLKS” showed a protease stability score of 1.47. “DDEHFDHLRKVLKTGDFERLNQLMDPNASADIGDKRYHGRESLEEMFRKLHTQIDHIEFKSMDLQGNKLKYTLVMTFNGREVTVTVVVEVQNGHIKRISIQARNESDREKLKHALD” gave a protease stability score of 1.46.

Sequence “DDEHIKEFLQVVRRGDPDKILKMIDPNAHLQVGDKDLHGRDAVKKAQDKLETTVDHFEVEEVHFQGDNVVVTYLLNVNGKSITVQLVANIEDGRIKSMRIEARSEEDHKILNEQQG” showed a protease stability score of 0.693.

In turn, “DDEHVRRLAEQLFKAMQSGDPDTVESLFDKNARVQIGDKSVSGHEDISKIFHDNWKRVDEFQLRTYDAHNGRVQLRFELHINGRRADITLSIEFRNGKIQEAVFEFRDESVRQQFRT” showed a protease stability score of 1.29.

For the sequence “DDEIERTMKNLMEAFSEGDPDKFRRNADPNAKMNVGDKSFHGMDDFLHQLKQLNKQARIEIEHITVTAQGDHAEVHAQFVNTENGRPRTKRVVYRAEVRNGQAKSIKLEDTK”, the protease stability score is 0.176.
